Consider two molecules from paper PMC7904477 (Journal of the American Chemical Society, 2020).

The target in this test is T1, wt α2 (subunit α2 of E. coli class Ia ribonucleotide reductase) (E. coli, UniProt P00452 1-761).
T1 sequence (looked up): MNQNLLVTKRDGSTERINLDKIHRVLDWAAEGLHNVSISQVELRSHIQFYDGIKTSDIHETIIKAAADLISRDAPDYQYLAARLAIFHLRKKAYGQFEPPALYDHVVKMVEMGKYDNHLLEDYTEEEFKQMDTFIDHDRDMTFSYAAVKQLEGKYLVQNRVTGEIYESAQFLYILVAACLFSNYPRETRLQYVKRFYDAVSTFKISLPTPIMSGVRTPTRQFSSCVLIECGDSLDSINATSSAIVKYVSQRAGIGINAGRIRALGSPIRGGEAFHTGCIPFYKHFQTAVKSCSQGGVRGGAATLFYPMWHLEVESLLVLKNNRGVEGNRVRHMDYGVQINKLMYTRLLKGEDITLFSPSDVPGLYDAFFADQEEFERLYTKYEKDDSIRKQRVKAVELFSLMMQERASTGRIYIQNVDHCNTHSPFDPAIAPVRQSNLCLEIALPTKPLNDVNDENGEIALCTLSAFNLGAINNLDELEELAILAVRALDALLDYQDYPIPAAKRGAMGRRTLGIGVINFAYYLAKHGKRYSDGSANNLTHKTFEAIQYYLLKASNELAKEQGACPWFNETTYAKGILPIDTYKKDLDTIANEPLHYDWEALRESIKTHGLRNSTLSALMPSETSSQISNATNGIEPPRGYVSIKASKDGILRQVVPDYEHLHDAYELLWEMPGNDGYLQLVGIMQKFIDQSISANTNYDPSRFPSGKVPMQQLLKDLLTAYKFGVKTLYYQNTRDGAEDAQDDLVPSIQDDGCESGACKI
The experiment in a line: competitive inhibition assay.

B1: wt β2 (subunit β2 of E. coli class Ia ribonucleotide reductase) (enzyme, UniProt P69924 1-376, looked up)
chain: MAYTTFSQTKNDQLKEPMFFGQPVNVARYDQQKYDIFEKLIEKQLSFFWRPEEVDVSRDRIDYQALPEHEKHIFISNLKYQTLLDSIQGRSPNVALLPLISIPELETWVETWAFSETIHSRSYTHIIRNIVNDPSVVFDDIVTNEQIQKRAEGISSYYDELIEMTSYWHLLGEGTHTVNGKTVTVSLRELKKKLYLCLMSVNALEAIRFYVSFACSFAFAERELMEGNAKIIRLIARDEALHLTGTQHMLNLLRSGADDPEMAEIAEECKQECYDLFVQAAQQEKDWADYLFRDGSMIGLNKDILCQYVEYITNIRMQAVGLDLPFQTRSNPIPWINTWLVSDNVQVAPQEVEVSSYLVGQIDSEVDTDDLSNFQL
modifications: diferric-tyrosyl radical cofactor (Y122•), reconstitution yield of 1.1 Y•/β2
Regarding B1, the binding result is reported as “binds”.

B2: E52Q-photoβ2 (E52Q/C268S/C305S/S355C-β2 of E. coli class Ia ribonucleotide reductase, labelled with the [Re] photooxidant at C355) (enzyme, UniProt P69924 1-376, looked up)
chain: MAYTTFSQTKNDQLKEPMFFGQPVNVARYDQQKYDIFEKLIEKQLSFFWRPEQVDVSRDRIDYQALPEHEKHIFISNLKYQTLLDSIQGRSPNVALLPLISIPELETWVETWAFSETIHSRSYTHIIRNIVNDPSVVFDDIVTNEQIQKRAEGISSYYDELIEMTSYWHLLGEGTHTVNGKTVTVSLRELKKKLYLCLMSVNALEAIRFYVSFACSFAFAERELMEGNAKIIRLIARDEALHLTGTQHMLNLLRSGADDPEMAEIAEESKQECYDLFVQAAQQEKDWADYLFRDGSMIGLNKDILSQYVEYITNIRMQAVGLDLPFQTRSNPIPWINTWLVSDNVQVAPQEVEVSCYLVGQIDSEVDTDDLSNFQL
modifications: [Re] photooxidant (tricarbonyl(1,10-phenanthroline)-4-thiomethylpyridine rhenium) covalently ligated to C355 (S355C); endogenous Y122• reduced
B2 gave a dissociation constant (Kd) of 1.06 µM.
